B1: DAZ associated protein 1 (DAZAP1), full length, recombinant (natural protein, human, UniProt Q96EP5 1-407, looked up)
chain: MNNSGADEIGKLFVGGLDWSTTQETLRSYFSQYGEVVDCVIMKDKTTNQSRGFGFVKFKDPNCVGTVLASRPHTLDGRNIDPKPCTPRGMQPERTRPKEGWQKGPRSDNSKSNKIFVGGIPHNCGETELREYFKKFGVVTEVVMIYDAEKQRPRGFGFITFEDEQSVDQAVNMHFHDIMGKKVEVKRAEPRDSKSQAPGQPGASQWGSRVVPNAANGWAGQPPPTWQQGYGPQGMWVPAGQAIGGYGPPPAGRGAPPPPPPFTSYIVSTPPGGFPPPQGFPQGYGAPPQFSFGYGPPPPPPDQFAPPGVPPPPATPGAAPLAFPPPPSQAAPDMSKPPTAQPDFPYGQYAGYGQDLSGFGQGFSDPSQQPPSYGGPSVPGSGGPPAGGSGFGRGQNHNVQGFHPYRR
B2: hnRNP A0, full length, recombinant (natural protein, UniProt Q13151 1-305, looked up)
chain: MENSQLCKLFIGGLNVQTSESGLRGHFEAFGTLTDCVVVVNPQTKRSRCFGFVTYSNVEEADAAMAASPHAVDGNTVELKRAVSREDSARPGAHAKVKKLFVGGLKGDVAEGDLIEHFSQFGTVEKAEIIADKQSGKKRGFGFVYFQNHDAADKAAVVKFHPIQGHRVEVKKAVPKEDIYSGGGGGGSRSSRGGRGGRGRGGGRDQNGLSKGGGGGYNSYGGYGGGGGGGYNAYGGGGGGSSYGGSDYGNGFGGFGSYSQHQSSYGPMKSGGGGGGGGSSWGGRSNSGPYRGGYGGGGGYGGSSF

Tests used:
[1] = molecular target: B2; assay: ITC
[2] = molecular target: B1; assay: ITC

| Binder | stoichiometry N [1] | binding result [2] |
| --- | --- | --- |
| B1 | 1 |  |
| B2 |  | binds |
| hnRNP A2, full length, recombinant (natural protein, UniProt P22626-2 1-341, looked up) MEREKEQFRKLFIGGLSFETTEESLRNYYEQWGKLTDCVVMRDPASKRSRGFGFVTFSSMAEVDAAMAARPHSIDGRVVEPKRAVAREESGKPGAHVTVKKLFVGGIKEDTEEHHLRDYFEEYGKIDTIEIITDRQSGKKRGFGFVTFDDHDPVDKIVLQKYHTINGHNAEVRKALSRQEMQEVQSSRSGRGGNFGFGDSRGGGGNFGPGPGSNFRGGSDGYGSGRGFGDGYNGYGGGPGGGNFGGSPGYGGGRGGYGGGGPGYGNQGGGYGGGYDNYGGGNYGSGNYNDFGNYNQQPSNYGPMKSGNFGGSRNMGGPYGGGNYGPGGSGGSGGYGGRSRY |  | binds |
